*: point of attachment. Succinimide(1-Et,3-yl) = CCN1C(=O)CC(*)C1=O

The chains are these.
B1: MUB40#4 (peptide)
peptide: Ac-C(Succinimide(1-Et,3-yl))VHVQYIDGETDQMLRQDDLDGYTDETIPYSTAEGIKKFEG-NH2
modifications: not fully specified
notes: Unlabelled peptide as used in analytical gel filtration; 'rather organized as tetramers'
B2: MUB40#3 (peptide)
peptide: Ac-C(Succinimide(1-Et,3-yl))DQMLRQDDLDGYTDETIPYSTAEGIKKFEGDGYELFKDNF-NH2
modifications: not fully specified
notes: as for B1
B3: MUB40#2 (peptide)
peptide: Ac-C(Succinimide(1-Et,3-yl))GYTDETIPYSTAEGIKKFEGDGYELFKDNFPAGEKFDNDD-NH2
modifications: not fully specified
notes: as for B1
B4: MUB40#1 (peptide)
peptide: Ac-C(Succinimide(1-Et,3-yl))TAEGIKKFEGDGYELFKDNFPAGEKFDNDDTNDQFYTVIF-NH2
modifications: not fully specified
notes: Unlabelled peptide as used in analytical gel filtration; trimer

The data set deals with the molecule itself. Description: self-association, analytical gel filtration in 20 mM phosphate buffer, 150 mM NaCl, pH 7.4. As to the method:
(A) Schematic representation of the four 40-amino acid peptides named MUB₄₀#1, MUB₄₀#2, MUB₄₀#3, MUB₄₀#4, overlapping and covering the MUB₇₀ sequence (Coïc et al., 2012) (from C-terminal to N-terminal, see FIG. 2). (B) Human colonic mucus layer was labelled with the MUB₄₀#1-Cy5 fluorescent conjugate (1 μg/mL, magenta). (C) Colonic goblet cell granules were labelled with MUB₄₀#1-Cy5 (1 μg/mL, magenta), which was not the case for MUB₇₀-Cy5 (Coïc et al., 2012) or MUB₄₀#2-#4 peptides (data not shown). Actin (red); bar, 20 μm. (D) Elution profiles of MUB₄₀ peptides (#1-#4) were obtained by analytical gel filtration (absorbance at 280 nm). Samples were prepared at 10 μg/ml in the elution buffer (20 mM phosphate buffer, 150 mM NaCl, pH7.4). MUB₄₀#1 assembled as a trimer, similarly to MUB₇₀ (Coïc et al., 2012), not MUB₄₀#2, MUB₄₀#3, and MUB₄₀#4. […] (E) Far-UV Circular Dichroism spectra of the four MUB₄₀ peptides at 60 μM in 20 mM sodium phosphate buffer (pH 7.4) in the presence of 50 mM NaCl, showing a specific structural signal of MUB₄₀#1, compared to others peptides. (F) A human colonic explant was infected with Shigella flexneri pGFP (green) and labelled with MUB₄₀#1-Cy5 (1 μg/mL, magenta) and Dapi (blue) after fixation and permeabilization. The colonic mucus layer and infiltrated neutrophils (see (G)), were labelled with MUB₄₀#1-Cy5, as imaged by two-photon microscopy. Bar, 50 μm (G) The labelling of polymorphonuclear neutrophils with MUB₄₀#1-Cy5 (1 μg/mL, magenta) was confirmed on human purified neutrophils, showing a granular staining. Nucleus was stained with Dapi (blue). Bar, 5 μm.
On the technique in general: Size exclusion chromatography separates by hydrodynamic size, large species first.
As for B1, the binding result is reported as “binds”.

For B2, the binding result is given as “binds”.

For B3, the binding result is “binds”.

As to B4, the binding result is on record as “binds”.

(Values after patent US20200369729A1 (CENTRE NATIONAL DE LA RECHERCHE SCIENTIFIQUE, published 2020).)
